This is an account of results in US20070207498A1, “Design and construction of dimeric concanavalin a mutants” (LifeScan, Inc., priority 2005, published 2007).

Usually EC50 stands for the midpoint of the concentration-response curve. Low values mean an effect from little substance, high ones a need for much substance. For orientation: Ki means the equilibrium dissociation constant of an inhibitor or competing ligand from its target.

In test [1] the target is T1, Concanavalin A (ConA) dimer mutant pET32 (D58N, N118C, H121C, E192Q), SEQ ID NOS: 12 and 24 (Canavalia ensiformis, UniProt P02866, D221N/E103Q/H32C/N281C).
T1 construct: made in house
Nature of the test: FRET response of sensors, Cy3.5-labeled pET32 dimer mutant ConA (donor) with Alexa647-labeled superoxide dismutase (acceptor). Type of test: binding. As to conditions: 500 mg/dL glucose; 6 μM to 24 μM ratio, Alexa647-SOD, FIG. 13.
Excerpt: (§1) Functional properties of recombinant ConA have been characterized by Fluorescence Resonance Energy Transfer (FRET) using a PTI QuantaMaster fluorimeter.

In test [2] the target is T1, Concanavalin A (ConA) dimer mutant pET32 (D58N, N118C, H121C, E192Q), SEQ ID NOS: 12 and 24. Nature of the test: FRET response of sensors, Cy3.5-labeled pET32 dimer mutant ConA (donor) with Cy5.5-labeled superoxide dismutase (acceptor). Type of test: binding. As to conditions: 500 mg/dL glucose; Cy5.5-SOD, FIG. 14.
Excerpt: as §1
Sensors made with Cy3.5-labeled pET32 dimer mutant ConA and Cy5.5-labeled superoxide dismutase (SOD).
Test [3] has as its target dye and sugar-labeled therapeutic human serum albumin (tHSA) (human) (UniProt P02768). Description: FRET competition assay (FIG. 12), 4-parameter logistic fit; unlabeled tetramer against labeled tetrameric ConA on HSA.
Test [4] shares this target. Nature of the test: FRET competition assay, 384-well plate: unlabeled tetramer displaces labeled tetrameric ConA from HSA; Ki estimated from EC50 and the concentration of labeled tetramer.
Test [5] addresses T2, dye and sugar-labeled therapeutic human serum albumin (tHSA) (human, UniProt P02768 25-609, sugar-labeled (glycoconjugate); labeled with the acceptor Alexa 647; modified residues not stated).
T2 construct: also called Alexa-HSA; Alexa-labeled Human Serum Albumin
Nature of the test: FRET competition assay, 384-well plate: unlabeled competitor displaces labeled tetrameric ConA from HSA; Ki estimated from EC50 and the concentration of labeled tetramer. Here is the method:
Mutant ConA was characterized by FRET. […] The EC₅₀ was calculated using a 4-parameter logistic equation.

`OC[C@H]1OC(O)[C@H](O)[C@@H](O)[C@@H]1O` (some centres unmarked) [glucose]: the results for the “FRET response to the addition of glucose” value in test [1] and in test [2] were “approximately 262%” and about 266%, respectively.
Consider “ConA tetramer (tetrameric ConA used as labeled partner and as unlabeled competitor in the competition binding assay) (from UniProt P02866 30-281)”, for which the EC50 in test [3] came out at 0.11 µM. Also, in test [4], the Ki was 0.0091 µM.

B1: pET32 quad mutant ConA (D58N, N118C, H121C, E192Q), stable dimer (other)
chain: ADTIVAVELDTYPNTDIGDPSYPHIGIDIKSVRSKKTAKWNMQNGKVGTAHIIYNSVNKRLSAVVSYPNADSATVSYDVDLDNVLPEWVRVGLSASTGLYKETNTILSWSFTSKLKSCSTCETNALHFMFNQFSKDQKDLILQGDATTGTDGNLELTRVSSNGSPQGSSVGRALFYAPVHIWESSAVVASFQATFTFLIKSPDSHPADGIAFFISNIDSSIPSGSTGRLLGLFPDAN
modifications: unlabeled as competitor in the FIG. 12 assay; labeled with Cy3.5b / Cy3.5 (donor dye) in the FRET and sensor experiments, labeled residues not stated
notes: also called dimer mutant ConA; pET32 dimer ConA mutant
Take B1: the Ki in test [5] was about 0.021 µM.
